Among the targets are BLM642-1290 S1121A (human, UniProt P54132 642-1290, S1121A); BLM642-1290 K1125A (human, UniProt P54132 642-1290, K1125A); BLM642-1290 T1110G (human, UniProt P54132 642-1290, T1110G).
Holding throughout (test): fluorescence anisotropy; 1 mM MgCl2, no ATP listed; 25 mM Tris-HCl pH 7.5 (last digit split in text), 100 mM NaCl, 1 mM MgCl2, 3 mM DTT, 5 nM DNA, 25 C, 5 min equilibration; Hill fit
Holding throughout (conditions): protein: recombinant
Background: Fluorescence polarisation rises when a labelled molecule tumbles more slowly, as on binding a larger partner.

For data set [1], the target named is BLM642-1290 helicase core, wild type (human, UniProt P54132 642-1290).
Setting [2] is: label: 3' fluorescein on F18, blunt.

Chain of BLM642-1290 T1110G (P54132 642-1290 T1110G): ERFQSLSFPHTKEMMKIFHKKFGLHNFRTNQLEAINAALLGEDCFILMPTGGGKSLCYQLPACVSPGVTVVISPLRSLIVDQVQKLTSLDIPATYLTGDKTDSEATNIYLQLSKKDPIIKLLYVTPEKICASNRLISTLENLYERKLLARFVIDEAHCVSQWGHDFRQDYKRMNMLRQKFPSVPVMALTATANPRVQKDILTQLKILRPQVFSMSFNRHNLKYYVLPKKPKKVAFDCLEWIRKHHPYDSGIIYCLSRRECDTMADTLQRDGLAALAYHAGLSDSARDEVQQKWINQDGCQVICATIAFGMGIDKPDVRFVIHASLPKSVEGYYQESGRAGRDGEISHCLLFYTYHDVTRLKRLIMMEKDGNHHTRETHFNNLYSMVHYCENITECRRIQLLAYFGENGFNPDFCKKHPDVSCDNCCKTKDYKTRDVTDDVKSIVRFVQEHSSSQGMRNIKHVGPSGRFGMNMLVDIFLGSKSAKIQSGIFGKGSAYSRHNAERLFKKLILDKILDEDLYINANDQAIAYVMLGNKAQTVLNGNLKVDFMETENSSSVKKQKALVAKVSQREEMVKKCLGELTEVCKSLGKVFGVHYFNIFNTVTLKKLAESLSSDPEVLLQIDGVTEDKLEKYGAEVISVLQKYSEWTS
Chain of BLM642-1290 S1121A (P54132 642-1290 S1121A): as the sequence (P54132 642-1290 T1110G) above, with G469T, S480A counted along it
Chain of BLM642-1290 helicase core, wild type (P54132 642-1290): as the sequence (P54132 642-1290 T1110G) above, with G469T counted along it
Chain of BLM642-1290 K1125A (P54132 642-1290 K1125A): as the sequence (P54132 642-1290 T1110G) above, with G469T, K484A counted along it

B1: F18/F18 bis dsDNA (18 bp) (dsDNA)
DNA 1: GCCTCGCTGCCGTCGCCA
DNA 2: TGGCGACGGCAGCGAGGC
With B1, the Kd was 4.6 ± 0.5 nM in data set [1] (setting [2]), 14.9 ± 1.7 nM with BLM642-1290 S1121A (setting [2]), 28.6 ± 2.6 nM with BLM642-1290 K1125A (setting [2]) and 78.2 ± 7.2 nM with BLM642-1290 T1110G (setting [2]).
For the molecule GCCTCGCTGCCGTCGCCA (ssDNA) [F18 ssDNA (18 nt)], the Kd in data set [1] (label: 3' fluorescein) is 17.2 ± 1.6 nM; in the data set with BLM642-1290 S1121A (label: 3' fluorescein), 27.1 ± 3.7 nM; with BLM642-1290 K1125A (label: 3' fluorescein), 21.3 ± 2.9 nM; in the data set with BLM642-1290 T1110G (label: 3' fluorescein), 29.7 ± 3.6 nM.

As usually defined, the Kd is the free concentration of one partner at which half of the binding sites on the other are occupied at equilibrium, for simple one-to-one binding.
